Data published in article PMC3578862, “Single Residue Mutation in Active Site of Serine Acetyltransferase Isoform 3 from Entamoeba histolytica Assists in Partial Regaining of Feedback Inhibition by Cysteine” (PLoS ONE, 2013).

Tests used:
[1] = molecular target: T1, Serine acetyltransferase isoform 1 (EhSAT1) (Entamoeba histolytica, UniProt Q9U8X2); test: SAT activity assay, acetyl-CoA thioester cleavage at […] nm, […] serine; format: biochemical
T1 construct: gene EhSAT
T1 sequence (Q9U8X2 1-305): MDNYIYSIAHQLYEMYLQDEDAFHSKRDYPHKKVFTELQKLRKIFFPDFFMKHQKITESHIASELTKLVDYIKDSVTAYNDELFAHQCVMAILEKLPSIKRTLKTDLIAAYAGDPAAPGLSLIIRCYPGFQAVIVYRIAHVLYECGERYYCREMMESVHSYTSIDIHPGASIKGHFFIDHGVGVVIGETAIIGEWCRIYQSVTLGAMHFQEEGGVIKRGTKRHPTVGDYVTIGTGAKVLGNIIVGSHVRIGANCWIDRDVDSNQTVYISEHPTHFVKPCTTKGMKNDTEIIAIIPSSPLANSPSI

[2] = substrate: N[C@@H](CO)C(=O)O; test: purified protein; format: biochemical, Entamoeba histolytica; conditions: acetyl coenzyme A active site

N[C@@H](CS)C(=O)O [L-cysteine]
IC50 [1]: 9.59 µM

B1: Serine acetyltransferase isoform 1 (EhSAT1) (Entamoeba histolytica) (protein)
chain: T1 sequence (Q9U8X2 1-305)
Km ([2]; Asp114, Asp179, His180, His208, Arg222, His223): 43.5 µM

B2: Serine acetyltransferase isoform 3 (EhSAT3) (Entamoeba histolytica) (protein)
chain: MSSLLQQTSQLLVQSYQSDNIAFKSTKQFPEKKSFLELELIQKILFPDFFTRRDKRTFNNVLERLSLLVYHIQNSIEAYYNQQLAEKCITALLSQFVTIRELVKQDIIAAYTGDPAASSLAMIIRSYPGIHVMMIQRVAHILYMNGDIEYSRELMENIHSVTGIDIHPGTSIGNHFFIDHGVGVVIGETAVIGNWCRVYQSVTLGAMSFKEDNGIVIKGNKRHPTIGDFVVIGAGAKVLGNITIGSNVKIGANCWITQNIDQDQIVFISEHPSQITKSSTKQSSKDDKIILQSLTENKISEEQENLSWVNSPELLCTYTSEESTPINLDCFVSCQQ
Km [2]: 52.0 µM
